From US20120294802A1 (published 2012)
Where a chain is given by its changes, count along the chain named.

T1: human Calcitonin Gene Related Peptide alpha (C-terminal amide (-NH2 printed after the last residue F; the filing words it as 'the N-terminal phenylalanine is amidated'); 125I radiolabeled in the receptor binding assay of Example 6)
T1 peptide: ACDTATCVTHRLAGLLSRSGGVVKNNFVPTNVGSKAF

B1: Antibody Ab1 (antibody, V domains shown)
VH: QSLEESGGRLVTPGTPLTLTCTVSGLDLSSYYMQWVRQAPGKGLEWIGVIGINDNTYYASWAKGRFTISRASSTTVDLKMTSLTTEDTATYFCARGDIWGPGTLVTVSS
VL: QVLTQTASPVSAAVGSTVTINCQASQSVYDNNYLAWYQQKPGQPPKQLIYSTSTLASGVSSRFKGSGSGTQFTLTISDLECADAATYYCLGSYDCSSGDCFVFGGGTEVVVKR
B2: Antibody Ab3 (antibody)
heavy: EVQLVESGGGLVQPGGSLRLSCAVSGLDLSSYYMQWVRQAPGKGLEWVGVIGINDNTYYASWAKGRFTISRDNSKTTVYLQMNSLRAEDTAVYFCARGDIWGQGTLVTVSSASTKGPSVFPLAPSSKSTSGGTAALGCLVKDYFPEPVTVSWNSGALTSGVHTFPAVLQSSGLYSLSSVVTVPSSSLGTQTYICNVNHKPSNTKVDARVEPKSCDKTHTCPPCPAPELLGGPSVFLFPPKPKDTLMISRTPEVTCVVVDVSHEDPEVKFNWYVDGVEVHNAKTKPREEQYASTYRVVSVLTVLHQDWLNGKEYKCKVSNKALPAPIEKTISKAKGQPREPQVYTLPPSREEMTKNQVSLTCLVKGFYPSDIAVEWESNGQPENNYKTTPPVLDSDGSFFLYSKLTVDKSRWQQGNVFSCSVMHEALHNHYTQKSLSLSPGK
light: QVLTQSPSSLSASVGDRVTINCQASQSVYDNNYLAWYQQKPGKVPKQLIYSTSTLASGVPSRFSGSGSGTDFTLTISSLQPEDVATYYCLGSYDCSSGDCFVFGGGTKVEIKRTVAAPSVFIFPPSDEQLKSGTASVVCLLNNFYPREAKVQWKVDNALQSGNSQESVTEQDSKDSTYSLSSTLTLSKADYEKHKVYACEVTHQGLSSPVTKSFNRGEC
B3: Antibody Ab2 (antibody)
heavy: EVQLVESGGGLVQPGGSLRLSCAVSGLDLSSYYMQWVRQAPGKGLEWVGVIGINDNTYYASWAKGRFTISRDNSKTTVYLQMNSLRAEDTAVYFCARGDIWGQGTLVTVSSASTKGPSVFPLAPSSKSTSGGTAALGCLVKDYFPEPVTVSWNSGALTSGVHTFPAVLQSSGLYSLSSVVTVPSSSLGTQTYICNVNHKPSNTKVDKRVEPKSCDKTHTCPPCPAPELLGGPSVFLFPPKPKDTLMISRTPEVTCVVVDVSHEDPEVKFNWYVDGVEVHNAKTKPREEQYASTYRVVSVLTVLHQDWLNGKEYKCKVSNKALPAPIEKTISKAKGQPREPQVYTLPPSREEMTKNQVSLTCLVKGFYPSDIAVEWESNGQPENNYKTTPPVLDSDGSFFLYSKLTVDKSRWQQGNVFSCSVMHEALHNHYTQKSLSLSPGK
light: B2 light
B4: Antibody Ab4 (antibody, V domains shown)
VH: B1 VH with T22S, L26I, S30G, Q34N, D54G, N55A, R70K, A71T
VL: QVLTQTPSPVSAAVGSTVTINCQASQSVYHNTYLAWYQQKPGQPPKQLIYDASTLASGVPSRFSGSGSGTQFTLTISGVQCNDAAAYYCLGSYDCTNGDCFVFGGGTEVVVKR

Molecular target: T1, human Calcitonin Gene Related Peptide …
Experiment: ELISA
B1 was tested, and the EC50 was 0.103 nM.
In the case of B2, the EC50 is reported as 0.154 nM.
For B3, the EC50 was 0.083 nM.
In the case of B4, the EC50 is reported as 0.088 nM.
